± gives the standard deviation of the averaged measurements.
System: ATP
Experiment: switch fluorescence ratio, 500 uM ATP over buffer (Cy3 cluster intensity, sum of 5 cycles each) (fold (ratio)); higher = stronger signal-on switching upon ATP binding; sequences stand for … in TCGTCGGCAGCGTCAGATGTGTATAAGAGACAGTTTTTTTTTTTTTTTTTTTTTTTTT…TC
Settings: aptamer strand: ATP DNA aptamer (quencher-CACCTGGGGGAGTATTGCGGAGGAAGG + anchor), 100 nM annealed; ATP concentration: 500 uM
Outline: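 Cy3-labelled switching-strand clusters on a modified Illumina MiSeq flow-cell were annealed to 100 nM quencher-labelled ATP aptamer, imaged in selection buffer, then imaged after 15 min with 500 uM ATP at 22 °C. Five buffer/ATP cycles ran, with NaOH stripping and re-annealing between them. The fluorescence ratio is summed target-cycle over summed buffer-cycle Cy3 intensity per cluster, averaged per switch-domain sequence. Clusters outside 100-1000 RFU were excluded.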
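Also: ATP exposure 15 min at 22 °C before imaging.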

Row | Sequence | switch fluorescence ratio
1 | TCGTTTAATT | 0.994 ± 0.04
2 | TCGTTTTTGA | 0.985 ± 0.039
3 | TCGTTTTTGG | 1 ± 0.041
4 | TCGTTTTTTA | 1.22 ± 0.45
5 | TCGTTTTTTG | 0.984 ± 0.016
6 | TCTAAAGCTG | 1 ± 0.023
7 | TCTAAAGGAT | 1.006 ± 0.004
8 | TCTAAATAGC | 1.05 ± 0.038
9 | TCTAAATCG | 1.04 ± 0.055
10 | TCTAAATTTA | 1.01 ± 0.06
11 | TCTAAGGGTG | 1.014 ± 0.01
12 | TCTAAGGTTA | 1 ± 0.02
13 | TCTAATACGG | 1.04 ± 0.02
14 | TCTAATCCGG | 1.015 ± 0.0051
15 | TCTAATCGGA | 0.975 ± 0.04
16 | TCTAATGGAA | 1.01 ± 0.018
17 | TCTACATGAT | 1.05 ± 0.013
18 | TCTACCTACA | 1.33 ± 0.051
19 | TCTACGGGGT | 1.46 ± 0.55
20 | TCTAGAATGG | 0.982 ± 0.033
21 | TCTAGCAACG | 1.01 ± 0.032
22 | TCTAGCGTAC | 2.64 ± 0.44
23 | TCTAGGAAAG | 0.991 ± 0.034
24 | TCTAGGAGGT | 0.987 ± 0.028
25 | TCTAGGGGTG | 1.03 ± 0.025

Row | Sequence | switch fluorescence ratio
26 | TCTAGTCGAA | 1.02 ± 0.036
27 | TCTAGTGGTT | 1 ± 0.019
28 | TCTAGTGTCG | 1.03 ± 0.11
29 | TCTATAGTTC | 1.01 ± 0.034
30 | TCTATCGTTA | 1.04 ± 0.03
31 | TCTATGGTCT | 0.99 ± 0.011
32 | TCTATTCGGG | 0.9484 ± 0.0029
33 | TCTATTGCTG | 0.995 ± 0.02
34 | TCTATTTTTT | 1.01 ± 0.014
35 | TCTCAATGCG | 1.02 ± 0.065
36 | TCTCATGTAG | 1.018 ± 0.009
37 | TCTCCATTGT | 1.04 ± 0.046
38 | TCTCGGGGCT | 0.97 ± 0.011
39 | TCTCGGTGAG | 0.99 ± 0.051
40 | TCTCTAGCTG | 1.05 ± 0.041
41 | TCTCTGGTTA | 1.01 ± 0.018
42 | TCTCTTTAAT | 0.997 ± 0.021
43 | TCTCTTTGTG | 1.02 ± 0.024
44 | TCTGACGTAC | 2.57 ± 0.19
45 | TCTGAGACGC | 1.05 ± 0.019
46 | TCTGAGCAAG | 2.47 ± 0.25
47 | TCTGAGCGGA | 1.14 ± 0.13
48 | TCTGAGGGGG | 1 ± 0.027
49 | TCTGAGTGCG | 1.02 ± 0.02
50 | TCTGAGTTTG | 0.993 ± 0.038

Row | Sequence | switch fluorescence ratio
51 | TCTGATGGCT | 1.04 ± 0.05
52 | TCTGCGGGGA | 1.14 ± 0.21
53 | TCTGCTTCAG | 0.973 ± 0.022
54 | TCTGGATCA | 1.0079 ± 0.00014
55 | TCTGGGAAGA | 1.02 ± 0.044
56 | TCTGGGAAGT | 0.986 ± 0.011
57 | TCTGGGCCGG | 0.989 ± 0.034
58 | TCTGGGGCGC | 0.984 ± 0.015
59 | TCTGGTAGCG | 1.02 ± 0.021
60 | TCTGGTATGA | 1.01 ± 0.015
61 | TCTGGTGTTT | 0.986 ± 0.024
62 | TCTGGTTGCG | 1 ± 0.037
63 | TCTGGTTGGT | 1.01 ± 0.051
64 | TCTGTAAGGC | 1.39 ± 0.066
65 | TCTGTCCTTC | 1.06 ± 0.054
66 | TCTGTCGGGC | 0.994 ± 0.054
67 | TCTGTTATCA | 1 ± 0.029
68 | TCTGTTGGGC | 0.995 ± 0.025
69 | TCTGTTGTG | 1.03 ± 0.029
70 | TCTGTTTTGG | 1 ± 0.038
71 | TCTTAAAGCA | 1.02 ± 0.06
72 | TCTTAAGAGT | 0.9987 ± 0.0022
73 | TCTTACGATC | 1 ± 0.021
74 | TCTTACGGAC | 1.31 ± 0.017
75 | TCTTAGAGGT | 0.983 ± 0.026

Row | Sequence | switch fluorescence ratio
76 | TCTTAGCCCT | 1.01 ± 0.025
77 | TCTTAGGCGG | 0.977 ± 0.039
78 | TCTTAGGGAT | 1 ± 0.052
79 | TCTTATAAGC | 0.984 ± 0.028
80 | TCTTATTTTT | 1.01 ± 0.025
81 | TCTTCTATCT | 0.985 ± 0.039
82 | TCTTCTGGCT | 1.02 ± 0.019
83 | TCTTCTGTCG | 1.001 ± 0.0087
84 | TCTTGAAATT | 1.021 ± 0.0031
85 | TCTTGATTTT | 1 ± 0.011
86 | TCTTGGCCAT | 1.24 ± 0.32
87 | TCTTGGGTTG | 0.986 ± 0.029
88 | TCTTGGTCAG | 0.991 ± 0.025
89 | TCTTGGTCGG | 1.026 ± 0.0041
90 | TCTTGGTGT | 0.9898 ± 0.0088
91 | TCTTGTAGCG | 0.986 ± 0.016
92 | TCTTTAAAGT | 1.04 ± 0.083
93 | TCTTTAATAA | 1 ± 0.039
94 | TCTTTATGTG | 0.998 ± 0.016
95 | TCTTTCAAGT | 0.994 ± 0.011
96 | TCTTTCCTGC | 1.022 ± 0.0014
97 | TCTTTCTTTC | 1.01 ± 0.03
98 | TCTTTGGGGT | 1.01 ± 0.012
99 | TCTTTGTATG | 0.991 ± 0.017
100 | TCTTTGTCTA | 0.972 ± 0.02
